# According to patent publication US20220010021A1 (Sanofi, published 2022):
# Tests used:
# human beta-Klotho (KLB) = molecular target: T1, human beta-Klotho (KLB) (human, UniProt Q86Z14 53-997); assay: BLI off-rate screen (Octet), Ab captured via Fc;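 further: antibody supernatants applied at 25 µg/mL, dissociation monitored over 1800 s in D-PBS with 0.1% BSA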
# T1 construct: also called human KLB
# T1 sequence (looked up): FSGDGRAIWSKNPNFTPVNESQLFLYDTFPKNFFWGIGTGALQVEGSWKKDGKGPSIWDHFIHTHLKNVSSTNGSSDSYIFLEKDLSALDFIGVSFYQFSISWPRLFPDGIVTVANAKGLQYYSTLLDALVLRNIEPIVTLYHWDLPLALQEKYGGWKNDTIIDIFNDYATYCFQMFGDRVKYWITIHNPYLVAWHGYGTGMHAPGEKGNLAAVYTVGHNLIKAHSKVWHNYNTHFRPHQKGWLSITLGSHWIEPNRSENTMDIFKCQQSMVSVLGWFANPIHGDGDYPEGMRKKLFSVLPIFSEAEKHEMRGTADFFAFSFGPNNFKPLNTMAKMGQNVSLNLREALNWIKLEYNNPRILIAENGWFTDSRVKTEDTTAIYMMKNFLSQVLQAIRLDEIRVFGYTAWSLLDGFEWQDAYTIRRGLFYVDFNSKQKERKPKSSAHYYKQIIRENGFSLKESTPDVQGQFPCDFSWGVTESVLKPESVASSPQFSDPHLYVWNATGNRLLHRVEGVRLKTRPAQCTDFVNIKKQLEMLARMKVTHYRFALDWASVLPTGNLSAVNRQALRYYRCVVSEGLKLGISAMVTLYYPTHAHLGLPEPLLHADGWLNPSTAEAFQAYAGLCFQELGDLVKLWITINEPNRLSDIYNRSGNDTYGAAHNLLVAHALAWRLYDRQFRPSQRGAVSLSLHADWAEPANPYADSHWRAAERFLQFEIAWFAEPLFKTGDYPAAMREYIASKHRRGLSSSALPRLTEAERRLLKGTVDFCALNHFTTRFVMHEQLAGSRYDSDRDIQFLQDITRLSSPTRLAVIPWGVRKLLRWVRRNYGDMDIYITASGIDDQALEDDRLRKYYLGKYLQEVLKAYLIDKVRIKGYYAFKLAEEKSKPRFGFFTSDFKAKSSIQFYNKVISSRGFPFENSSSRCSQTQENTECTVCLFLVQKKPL
# [1] = molecular target: human FGFR1c/KLB cell surface receptor complex on iLite FGF21 reporter cells (human, UniProt P11362 22-822; Q86Z14 1-1044); assay: cell-based or functional assay; on Mean E max (%): reference of the scale not given here
# Sequence of human FGFR1c/KLB cell surface receptor complex on iLite FGF21 reporter cells (P11362 22-822, chain 1 of 2): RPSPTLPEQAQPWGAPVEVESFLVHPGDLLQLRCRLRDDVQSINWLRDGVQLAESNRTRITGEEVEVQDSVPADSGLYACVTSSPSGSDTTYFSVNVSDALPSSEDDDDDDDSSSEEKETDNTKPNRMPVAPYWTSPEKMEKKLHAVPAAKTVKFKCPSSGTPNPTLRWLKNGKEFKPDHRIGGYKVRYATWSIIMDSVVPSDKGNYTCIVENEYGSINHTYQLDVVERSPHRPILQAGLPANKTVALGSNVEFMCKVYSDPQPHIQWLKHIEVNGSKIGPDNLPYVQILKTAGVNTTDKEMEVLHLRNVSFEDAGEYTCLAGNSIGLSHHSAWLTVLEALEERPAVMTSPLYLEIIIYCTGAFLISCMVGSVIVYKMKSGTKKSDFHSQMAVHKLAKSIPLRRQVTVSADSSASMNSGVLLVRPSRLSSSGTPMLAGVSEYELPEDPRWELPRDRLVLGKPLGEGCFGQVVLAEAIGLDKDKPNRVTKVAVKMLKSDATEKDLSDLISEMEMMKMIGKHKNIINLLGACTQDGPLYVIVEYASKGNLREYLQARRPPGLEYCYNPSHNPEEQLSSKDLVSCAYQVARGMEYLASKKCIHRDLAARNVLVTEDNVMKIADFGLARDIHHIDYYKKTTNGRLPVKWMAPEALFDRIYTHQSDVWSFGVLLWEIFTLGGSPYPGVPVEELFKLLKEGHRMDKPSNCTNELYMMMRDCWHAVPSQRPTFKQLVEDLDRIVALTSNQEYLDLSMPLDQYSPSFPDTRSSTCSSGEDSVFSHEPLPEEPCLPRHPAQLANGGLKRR
# Sequence of human FGFR1c/KLB cell surface receptor complex on iLite FGF21 reporter cells (Q86Z14 whole entry, chain 2 of 2): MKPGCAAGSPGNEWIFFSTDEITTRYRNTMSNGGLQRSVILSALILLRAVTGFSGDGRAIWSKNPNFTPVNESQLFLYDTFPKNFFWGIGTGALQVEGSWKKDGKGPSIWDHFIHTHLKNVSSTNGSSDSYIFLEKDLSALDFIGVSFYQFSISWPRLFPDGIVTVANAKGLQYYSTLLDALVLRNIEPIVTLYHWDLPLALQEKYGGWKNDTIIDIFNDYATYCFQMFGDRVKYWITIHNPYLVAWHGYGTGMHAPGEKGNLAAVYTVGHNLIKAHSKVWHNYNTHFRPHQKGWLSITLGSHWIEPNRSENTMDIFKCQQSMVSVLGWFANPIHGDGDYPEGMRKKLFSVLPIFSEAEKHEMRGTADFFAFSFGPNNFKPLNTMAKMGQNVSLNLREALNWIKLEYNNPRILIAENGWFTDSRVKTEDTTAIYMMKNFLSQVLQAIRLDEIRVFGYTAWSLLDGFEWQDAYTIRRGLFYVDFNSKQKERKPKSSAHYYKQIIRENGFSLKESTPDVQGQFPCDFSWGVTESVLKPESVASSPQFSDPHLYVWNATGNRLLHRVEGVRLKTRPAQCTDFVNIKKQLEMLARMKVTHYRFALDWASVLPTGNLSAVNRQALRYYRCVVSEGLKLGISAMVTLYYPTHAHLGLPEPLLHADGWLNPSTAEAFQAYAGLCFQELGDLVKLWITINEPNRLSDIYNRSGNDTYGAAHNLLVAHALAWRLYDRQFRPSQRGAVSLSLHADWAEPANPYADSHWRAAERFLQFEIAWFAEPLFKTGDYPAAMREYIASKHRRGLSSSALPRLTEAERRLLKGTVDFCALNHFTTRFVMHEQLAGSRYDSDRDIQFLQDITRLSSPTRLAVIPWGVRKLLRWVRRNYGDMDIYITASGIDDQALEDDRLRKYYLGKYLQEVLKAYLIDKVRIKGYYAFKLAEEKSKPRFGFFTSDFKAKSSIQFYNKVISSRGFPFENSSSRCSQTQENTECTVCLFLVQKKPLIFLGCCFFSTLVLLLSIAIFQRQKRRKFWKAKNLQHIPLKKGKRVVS
Binder,koff (human beta-Klotho (KLB)) [s⁻¹],Mean E max (%) [1] [%],Mean EC50 [1] [nM]
"16H7 variant, light chain G23K (antibody, human IgG4 S228P, lambda, V domains shown, IgG4 backbone) VH: not shown VL: SYVLTQPPSVSVAPGQTARITCKGNNIGSESVHWYQQKPGQAPVLVVYDDSDRPSGIPERFSGSNSGNTATLTISRVEAGDEADYYCQVWDGNSDHVVFGGGTKLTVLG",3.9e-05,90,0.104
"16H7 variant, light chain G23L (antibody, human IgG4 S228P, lambda, V domains shown, IgG4 backbone) VH: not shown VL: SYVLTQPPSVSVAPGQTARITCLGNNIGSESVHWYQQKPGQAPVLVVYDDSDRPSGIPERFSGSNSGNTATLTISRVEAGDEADYYCQVWDGNSDHVVFGGGTKLTVLG",9.1e-05,106,0.131
"16H7 variant, light chain G23T (antibody, human IgG4 S228P, lambda, V domains shown, IgG4 backbone) VH: not shown VL: SYVLTQPPSVSVAPGQTARITCTGNNIGSESVHWYQQKPGQAPVLVVYDDSDRPSGIPERFSGSNSGNTATLTISRVEAGDEADYYCQVWDGNSDHVVFGGGTKLTVLG",1.5e-05,112,0.105
"16H7 variant, light chain G24S (antibody, human IgG4 S228P, lambda, V domains shown, IgG4 backbone) VH: not shown VL: SYVLTQPPSVSVAPGQTARITCGSNNIGSESVHWYQQKPGQAPVLVVYDDSDRPSGIPERFSGSNSGNTATLTISRVEAGDEADYYCQVWDGNSDHVVFGGGTKLTVLG",8.3e-06,121,0.135
"16H7 variant, light chain G23S (antibody, human IgG4 S228P, lambda, V domains shown, IgG4 backbone) VH: not shown VL: SYVLTQPPSVSVAPGQTARITCSGNNIGSESVHWYQQKPGQAPVLVVYDDSDRPSGIPERFSGSNSGNTATLTISRVEAGDEADYYCQVWDGNSDHVVFGGGTKLTVLG",1e-07,120,0.143
"16H7 variant, light chain G24L (antibody, human IgG4 S228P, lambda, V domains shown, IgG4 backbone) VH: not shown VL: SYVLTQPPSVSVAPGQTARITCGLNNIGSESVHWYQQKPGQAPVLVVYDDSDRPSGIPERFSGSNSGNTATLTISRVEAGDEADYYCQVWDGNSDHVVFGGGTKLTVLG",3.4e-05,108,0.161
"16H7 variant, light chain G24E (antibody, human IgG4 S228P, lambda, V domains shown, IgG4 backbone) VH: not shown VL: SYVLTQPPSVSVAPGQTARITCGENNIGSESVHWYQQKPGQAPVLVVYDDSDRPSGIPERFSGSNSGNTATLTISRVEAGDEADYYCQVWDGNSDHVVFGGGTKLTVLG",2.7e-05,112,0.118
"16H7 variant, light chain G24C (antibody, human IgG4 S228P, lambda, V domains shown, IgG4 backbone) VH: not shown VL: SYVLTQPPSVSVAPGQTARITCGCNNIGSESVHWYQQKPGQAPVLVVYDDSDRPSGIPERFSGSNSGNTATLTISRVEAGDEADYYCQVWDGNSDHVVFGGGTKLTVLG",2.2e-05,104,0.106
"16H7 variant, light chain G24N (antibody, human IgG4 S228P, lambda, V domains shown, IgG4 backbone) VH: not shown VL: SYVLTQPPSVSVAPGQTARITCGNNNIGSESVHWYQQKPGQAPVLVVYDDSDRPSGIPERFSGSNSGNTATLTISRVEAGDEADYYCQVWDGNSDHVVFGGGTKLTVLG",1.7e-05,103,0.114
"16H7 variant, light chain G24R (antibody, human IgG4 S228P, lambda, V domains shown, IgG4 backbone) VH: not shown VL: SYVLTQPPSVSVAPGQTARITCGRNNIGSESVHWYQQKPGQAPVLVVYDDSDRPSGIPERFSGSNSGNTATLTISRVEAGDEADYYCQVWDGNSDHVVFGGGTKLTVLG",1.5e-06,98,0.106
"16H7 variant, light chain G23Y (antibody, human IgG4 S228P, lambda, V domains shown, IgG4 backbone) VH: not shown VL: SYVLTQPPSVSVAPGQTARITCYGNNIGSESVHWYQQKPGQAPVLVVYDDSDRPSGIPERFSGSNSGNTATLTISRVEAGDEADYYCQVWDGNSDHVVFGGGTKLTVLG",4.2e-05,107,0.124
"16H7 variant, light chain G24A (antibody, human IgG4 S228P, lambda, V domains shown, IgG4 backbone) VH: not shown VL: SYVLTQPPSVSVAPGQTARITCGANNIGSESVHWYQQKPGQAPVLVVYDDSDRPSGIPERFSGSNSGNTATLTISRVEAGDEADYYCQVWDGNSDHVVFGGGTKLTVLG",3.6e-05,95,0.094
"16H7 variant, light chain G24I (antibody, human IgG4 S228P, lambda, V domains shown, IgG4 backbone) VH: not shown VL: SYVLTQPPSVSVAPGQTARITCGINNIGSESVHWYQQKPGQAPVLVVYDDSDRPSGIPERFSGSNSGNTATLTISRVEAGDEADYYCQVWDGNSDHVVFGGGTKLTVLG",2.7e-05,109,0.143
"16H7 variant, light chain G24H (antibody, human IgG4 S228P, lambda, V domains shown, IgG4 backbone) VH: not shown VL: SYVLTQPPSVSVAPGQTARITCGHNNIGSESVHWYQQKPGQAPVLVVYDDSDRPSGIPERFSGSNSGNTATLTISRVEAGDEADYYCQVWDGNSDHVVFGGGTKLTVLG",2.7e-05,99,0.125
"16H7 variant, light chain G23N (antibody, human IgG4 S228P, lambda, V domains shown, IgG4 backbone) VH: not shown VL: SYVLTQPPSVSVAPGQTARITCNGNNIGSESVHWYQQKPGQAPVLVVYDDSDRPSGIPERFSGSNSGNTATLTISRVEAGDEADYYCQVWDGNSDHVVFGGGTKLTVLG",2.7e-05,100,0.138
"16H7 variant, light chain G23P (antibody, human IgG4 S228P, lambda, V domains shown, IgG4 backbone) VH: not shown VL: SYVLTQPPSVSVAPGQTARITCPGNNIGSESVHWYQQKPGQAPVLVVYDDSDRPSGIPERFSGSNSGNTATLTISRVEAGDEADYYCQVWDGNSDHVVFGGGTKLTVLG",3.8e-05,101,0.117
"16H7 variant, light chain G24T (antibody, human IgG4 S228P, lambda, V domains shown, IgG4 backbone) VH: not shown VL: SYVLTQPPSVSVAPGQTARITCGTNNIGSESVHWYQQKPGQAPVLVVYDDSDRPSGIPERFSGSNSGNTATLTISRVEAGDEADYYCQVWDGNSDHVVFGGGTKLTVLG",6.9e-05,106,0.139
"16H7 variant, light chain G23V (antibody, human IgG4 S228P, lambda, V domains shown, IgG4 backbone) VH: not shown VL: SYVLTQPPSVSVAPGQTARITCVGNNIGSESVHWYQQKPGQAPVLVVYDDSDRPSGIPERFSGSNSGNTATLTISRVEAGDEADYYCQVWDGNSDHVVFGGGTKLTVLG",3.9e-05,93,0.105
"16H7 variant, light chain G24F (antibody, human IgG4 S228P, lambda, V domains shown, IgG4 backbone) VH: not shown VL: SYVLTQPPSVSVAPGQTARITCGFNNIGSESVHWYQQKPGQAPVLVVYDDSDRPSGIPERFSGSNSGNTATLTISRVEAGDEADYYCQVWDGNSDHVVFGGGTKLTVLG",2.3e-05,107,0.151
"16H7 variant, light chain G23R (antibody, human IgG4 S228P, lambda, V domains shown, IgG4 backbone) VH: not shown VL: SYVLTQPPSVSVAPGQTARITCRGNNIGSESVHWYQQKPGQAPVLVVYDDSDRPSGIPERFSGSNSGNTATLTISRVEAGDEADYYCQVWDGNSDHVVFGGGTKLTVLG",3.1e-05,103,0.135
"16H7 variant, light chain G24K (antibody, human IgG4 S228P, lambda, V domains shown, IgG4 backbone) VH: not shown VL: SYVLTQPPSVSVAPGQTARITCGKNNIGSESVHWYQQKPGQAPVLVVYDDSDRPSGIPERFSGSNSGNTATLTISRVEAGDEADYYCQVWDGNSDHVVFGGGTKLTVLG",3.9e-05,102,0.143
"16H7 variant, light chain G24M (antibody, human IgG4 S228P, lambda, V domains shown, IgG4 backbone) VH: not shown VL: SYVLTQPPSVSVAPGQTARITCGMNNIGSESVHWYQQKPGQAPVLVVYDDSDRPSGIPERFSGSNSGNTATLTISRVEAGDEADYYCQVWDGNSDHVVFGGGTKLTVLG",4.8e-05,109,0.115
"16H7 variant, light chain G23M (antibody, human IgG4 S228P, lambda, V domains shown, IgG4 backbone) VH: not shown VL: SYVLTQPPSVSVAPGQTARITCMGNNIGSESVHWYQQKPGQAPVLVVYDDSDRPSGIPERFSGSNSGNTATLTISRVEAGDEADYYCQVWDGNSDHVVFGGGTKLTVLG",4.1e-05,91,0.122
